# Experimental data published in the DeepSol protein solubility set.
# Test: soluble on expression in E. coli; label from the status in PepcDB or PDB records
row,Sequence,soluble on expression in E. coli
1,MYEYSFNPNIDHEPGSVESQQSTIYSDSDDSDDSFLDDEVIPPKEQAMRKIEFALADIKRQMDNKEKSLTLRISTSKSHFCLRYTAKRKGKLDRDLHCLHQVYDLLENDKRSTKRELYYEHKAVYGNQKYLDSSIKSICELLNESRANLNILSCGRGIIRGAITFLVENVGVIDARVQEVLITDALLFSNIISEADFILVVEKDTTFQKLMDENFQAMFPRGILATSKGYPDIATRNVLKMLSEKRKFPIYGLFDADPHGIEIYLTYKYGPTKEFAEGRGAFVPTIEWIGLFPTDFHRFTIDQSQCLPLVRTDFVKIEKMIPRSIQLGEIVVTRELDWMIQNKFKMELESINMCGQEYMARFLIAPRVMSIEKEIPIQPETIINEYHEDSQCSLSTDDDREAKDDDYIDSDAEEKFQNMIDNDSD,not soluble
2,MGSDKIHHHHHHMKFPRKGIPQEEVMRELEKYTSKDLSFSSGKILGSMCTLPHELAKEVFCMYMDRNLGDPGLHPGTKKIEEEVIEMLSDLLHLERGYGHIVSGGTEANILAVRAFRNLADVENPELILPKSAHFSFIKAGEMLGVKLIWADLNPDYTVDVKDVEAKISENTIGIVGIAGTTGLGVVDDIPALSDLARDYGIPLHVDAAFGGFVIPFAKELGYDLPDFDFKLKGVQSITIDPHKMGMAPIPAGGIVFRHKKYLRAISVLAPYLAGGKIWQATITGTRPGASVLAVWALIKHLGFEGYMEIVDRAMKLSRWFAEEIKKTPGAWLVREPMLNIVSFKTKNLRRVERELKSRGWGISAHRGYIRIVSHASCDGGHD,not soluble
3,MSHINLYSLPTDHKNMIRCRYCEKIYKIDNGSSGFIRHLRCKHPNVLYQMGAISNGKEYNLITKQETLSIDTNNEINLRDDDDFMMMKEFSSNQILVNFLSQLDLPTNDVNRVLGKRHRISPTPTINSSVTPNEEHEPDLKMFNSGDTLQNFLIDIDNHIRQKNQESQEAIGTGEESTSASALDMPSSQKESREPSPNSSMLDETNGGTETGDSSPTPFNPARPFGCVICPCSFPRVKDLTIHVTSVHRTRFRCNTCLAEFVQPQHLEHHYSISHAGTSTGTVVNT,not soluble
4,MGHHHHHHSHMTSLMDLTLLLARSQPELIEAHTCERIMCCVAQQASEKIDRFRAHAASVFLTLLHFDSPPIPHVPHRGELEKLFPRSDVASVNWSAPSQAFPRITQLLGLPTYRYHVLLGLVVSLGGLTESTIRHSTQSLFEYMKGIQSDPQALGSFSGTLLQIFEDNLLNERVSVPLLKTLDHVLTHGCFDIFTTEEDHPFSVKLLALCKKEIKNSKDIQKLLSGIAVFCEMVQFPGDVRRQALLQLCLLLCHRFPLIRKTTASQVYETLLTYSDVVGADVLDEVVTVLSDTAWDAELAVVREQRNRLCDLLGVPRPQLVPQPGAC,not soluble
5,MGSDKIHHHHHHMTGKLPKACVIGAGCSGFTTIKRLKDYGIPYDCFEMSDEVGGNWYYKNPNGLSACYESLHIDTSKWRLAFEDFPVPKDWPDFPHHAQLFQYFKDYVDHFGLRPTITFNTKVESAKRTADGLWAVTLSGGETQFYDVLFVCNGHHWDPRVPEYPGEFDGPAFHAHAYCDPFDPVDMRGKNVVVVGMGNSAMDIASELSQRPIAKNLWVSARRGVWVFPKYLNGKPADKTALPAWMPRKLGVALSRSVLKKTIGRMEDYGLPKPDHEPLEAHPSVSGEFLTRAGCGDIKFKPAIKALEGKRVRFTDDSVEDVDAIVFATGYKISFPFFDDPALLPDADHRLPLFKRMMKPEVPNLFYMGLAQPLPTLVNFAEQQAKLAAAYLAGQYALPPPAEMARITAKDEHRHTGHFYDSARHTIQVDFNVYCADLKKEIAKGEARARNAGGKLPVAARAEGQALAAE,not soluble
6,MTEQLKDFDVAEHLTSEEEIQLYLNEILQEDNIELILSALGDIARARNMSQIARDAGISREGLYKALSGTGNPTFATVMKVMKALNLQFQVQQSRFA,not soluble
7,AIANDDRATAFNALKNKTVCVQGDGNSRQFYHALVEILSNHSSAIPVNKNGNDFCNAPFAQCPQDTYYFDLVDKSDNLSVKLYWRWAPEFSDIECPMKVPSGFTPGSNYSFPSGPDTLSCDINIMDAGQWELFEKDANVTTAGYSQGVSNLSKCFSSDKSAKYFWIAAYALTPEQLQIHLPYNNTDVERINEVATQGLNSTACVLNGYDVTVNAFNDTKEATTDGIHYLGWINEQVVHLFFNAVTNSSAPTVPSSNVSVTSPNVQLGQVPNLNPSTTNSFLPVQTIVTVPSSSATSASSGLNFGGSSQGGGSGIPQL,soluble
8,MICTPKVGLNNQLTKVQFFMTKYNFLFKQQVIEFYLQNDKNSSLTRRHFQLAETTLERWINQFNHSGINGLALLGKKRNYSPEFKLNVIQAVKNGKFSAEAACLHFGIANSGVVSQWLQAFEKQGINGLIPKPKGRPTMKLQYPKMPPKPKTREEELELENLRLRAENAILKKLQELNQQKMQKKPLSLEHHHHHH,not soluble
9,SNAMNYFELFGLPIQFELDGSLLSSQFRALQKRFHPDNFATASERDRLMAVQQAAQINDAYQTLKDPLRRAEYLLSLQGIEMNAEQQTLQDPMFLMEQMELREELESVTACADPEAALVAFDTKVTAMQRHYLAQLQGQLAQSEWLAAADQIRKLKFIAKLKNEVERVEDQLLG,soluble
10,SVTDNNGAVKFPQLCKFCDVRFSTCDNQKSCMSNCSITSICEKPQEVCVAVWRKNDENITLETVCHDPKLPYHDFILEDAASPKCIMKEKKKPGETFFMCSCSSDECNDNIIFSEEYNTSNPD,soluble
11,GGSHMELPGSSMKPSGEDQAALAAGPWEECFQAAVQLALRAGQIIRKALTEEKRVSTKTSAADLVTETDHLVEDLIISELRERFPSHRFIAEEAAASGAKCVLTHSPTWIIDPIDGTCNFVHRFPTVAVSIGFAVRQELEFGVIYHCTEERLYTGRRGRGAFCNGQRLRVSGETDLSKALVLTEIGPKRDPATLKLFLSNMERLLHAKAHGVRVIGSSTLALCHLASGAADAYYQFGLHCWDLAAATVIIREAGGIVIDTSGGPLDLMACRVVAASTREMAMLIAQALQTINYGRDDEK,soluble
12,SFDNLRNELSRPYGILFINNKIFLEFISKSIQRGSRIITVGDYVSRVLEENGIVPFLEVIDGKTKRTITQNRAITRNKEYKVTNEAGKIRFEIFEIMENILKDREGGVVFVDGEEDLLVIPVTLSANHGDIVIYGQPNAGAVVIIVNEMIRWRVRDILEKAIVKE,not soluble
13,MGSDKIHHHHHHAETVVVRFGLFAESIPVADLQKAAETGEFPSSLNLFTRRLSEQQRRTLIGALRMRVPLNVVTISRLLNTQIGTTILNDLSRAVVRKDQSGAKALRASLVLGSTAPQGLSILSFITAYPSRSLEINLPQAFQVAGSLNNAFWRTQQFMLAISPQLDPAKPQISIPFDPSQPGNAQVQVLKLNLNDQKRNRQIPADIYWSTSATQEKPVIIYSHGMGSVRTDLHYLAEHLASHGYIFVALEHPGSNQANTDLATKGKVRLLEPQEFLNRPQDVSFVLDVLEKLNQTTGNPLQGKLATNNTMVIGYSFGGGTALSLAGAELQIAGIRERCQNKLTILSLGETIQCVAQELPEKTYQLRDNRIKQAIALTPTTSLMFGETGLTKVQIPTLIVAASADKTTPALTEQILGFSKIPSPKWLVGIIGGTHLSVKDPSTTLDQVDKPNTPLTGGEIVGEQATDVRQFVKAIALAMVAQLTPEAEKYAVFLTPDYAQLASTESFPFRIVTEIPPQAIPIGKQ,not soluble
14,MTTMSGYTRSQRPRQAILGQLPRIHRADGSPIRVLLVDDEPALTNLVKMALHYEGWDVEVAHDGQEAIAKFDKVGPDVLVLDIMLPDVDGLEILRRVRESDVYTPTLFLTARDSVMDRVTGLTSGADDYMTKPFSLEELVARLRGLLRRSSHLERPADEALRVGDLTLDGASREVTRDGTPISLSSTEFELLRFLMRNPRRALSRTEILDRVWNYDFAGRTSIVDLYISYLRKKIDSDREPMIHTVRGIGYMLRPPE,not soluble
15,QEQQQELAQLEMARSALDSLSELICLQDCQGNLLTTNRAFDQFWEGRREEAITATASRVATRKSERKWTTDTQGRSCLLEVNLSSLVSPSGELLGTLSISHDVT,not soluble
16,MAQTKPIAEQMAALNNSDDTSFAADRSNSLLNATCPARIQNSVDQRKINRSFNDSLSSGYSGKWLRPKREALKITPLAQIDEAPATKRHSSAKDKHTEYKTRLCDAFRREGYCPYNDNCTYAHGQDELRVPRRRQEYYSRDPPRERRDSRSRRDDVDTTINRSSSSASKHHDENRRPSNNHGSSNRRQICHNFERGNCRYGPRCRFIHVEQMQHFNANATVYAPPSSDCPPPIAYYHHHPQHQQQFLPFPMPYFLAPPPQAQQGAPFPVQYIPQQHDLMNSQPMYAPMAPTYYYQPINSNGMPMMDVTIDPNATGGAFEVFPDGFFSQPPPTIIS,not soluble
17,MGSDKIHHHHHHMLTTLAIGNYRSINHLVLPLSQLNLVTGANGSGKSNLYKALRLLAETAQGGVVEALAREGGLDSTWWAGPETSARMRRGEVPIQGQHPSEVRRLRLGFATEDLGFAITLGLPIPLPYPSAFMLDPEIKCEAIWGAGAYRPSSLLVERKNALVRAREGNRWAVLDQHADSGESFFNIVGRPRQAPEIGDLRAFINSWRFYDHFRIDRDAPCRQPQLGTRSPVLHHDGRNLASALQTIIEIGDVEDLEEALNDAFPGSRLEINAPPGGLFSVRLHQHGLLRPLEGAELSDGTLRYLLLMAALLTPRPPSLMVLNEPETSLHADLLPALARLIIRASRRSQVWVVSHSAPLINALAACDGCNVLELEKIQGQTQLRGVGLLDEPLWRWAD,not soluble
18,MSLNQRTLFDKIWDEHVVDVGADGTTLLYVDRHFLHEVTSPQAFRGLQLAGRRPWRSDANLAMPDHNVPTKDRAAHLDDALARAQIEALDRNCAEFAVPLFRLSDPRQGIVHVSGPEQGASLPGSVIVCGDSHTSTHGALATIAHGIGTSEVEHVLATQTLLARKPARMRVNFHGVAGAGVSAKDMALAMIAKVGAAGAQGYAIEYAGEAVRCLSVEARMTLCNMSIEAGARCGMVAVDDKTIEYLRGRPMAPRGESWDLAVRTWRALVSDHDAQFDVEIEIDVGMLGPLVTWGTSPDMVISVDEKIPDPAAEKDGTRRAGMERALRYMDLAPGTPITDVRLDRIFIGSCTNSRLEDLRAAAEVIRGKHVAASIRQALVVPGSGLVKQQAENEGLHQLFIDAGFEWRDAGCSMCVGMNADHLLSGERCASTSNRNFEDRQGVGGRTHLVSPAMAAAAAIAGHFVDIRRSEGHHHHHH,not soluble
19,MYNDELIESSKIKWQLFLKGDDDAYAWLYSRYVQQLYQYGCRFTTDTEMVKDCVQDVFVNVYRQKDRYSSPPDNVKIYLMSSLRNSIFNVFNKGNLHDTYISNINYEFDLSVEEKLIETEDETSQKHTVAHLLNTLSPRQREIIYYRFFEGLDYSAICELMGLNYQSAYNLLQRSLSRLREMYGILPFFFLF,not soluble
20,MPEEIATLAGGCFWCTEAAFKLLRGVLEVVPGYAGGHVPHPTYEEVCTGTTGHREAVQVRFDPGVLPYADLLRYFFAVHDPTSEDRQGPDVGPQYSPAIFYHSEEQKRVAEAVMRELAPLYPKPIATKLLPFTTFYPAEAYHRDYFARHPEAPYCRFVIAPKLEKARKAFKSLLRP,soluble
21,MMDRVCRLSLAALLAGSGAAYADGSTLTVAYYGGNWGEAFDACVAQPFTEKTGIRVVAEIGNSTTTLAKLQQQSGDAVIDVAYMDGGISELAQEAGVLAPIDLAAIPNAASYLPQAVYKAGDEVFAVSAGYYSLGLIYNTSEVTETPDTWLSLWDESYAGAVALPSPSNSSGVPFVLFLARSVLGDTSESLDPTFAKLKELDTGLLFDSSGAASNAFQSSEVIIGAHFNVGAWDLTDGGLPIGFSVPKEGVWATDARMHVVKGTKNPEGAAQYLDMAASPEAAACLAERLYLGPPVTGVTLAPDVERKLPWGEGGSVEKLHLSDWTEVNARRAAIVERWNREIAN,not soluble
